# Source: patent US20170052184A1 (published 2017)
# Residue numbers refer to the chain shown, from its start.
# T1: HCV bt-134-154 (Peptide 1, HCVc 134-154) (Hepatitis C virus (numbering per HCV-1), biotin (carboxy-terminal per; N-terminal per))
# T1 peptide: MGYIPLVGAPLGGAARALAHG
# T2: HCV bt-151-171 (Peptide 3, HCVc 151-171) (Hepatitis C virus (numbering per HCV-1), biotin (carboxy-terminal per; N-terminal per))
# T2 peptide: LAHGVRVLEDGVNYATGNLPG
# T3: HCV bt-141-161 (Peptide 2, HCVc 141-161) (Hepatitis C virus (numbering per HCV-1), biotin (carboxy-terminal per; N-terminal per))
# T3 peptide: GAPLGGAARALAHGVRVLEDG
# T4: HCV Core1-169 (hepatitis C virus (HCV-1), UniProt P26664 1-169)
# T4 sequence: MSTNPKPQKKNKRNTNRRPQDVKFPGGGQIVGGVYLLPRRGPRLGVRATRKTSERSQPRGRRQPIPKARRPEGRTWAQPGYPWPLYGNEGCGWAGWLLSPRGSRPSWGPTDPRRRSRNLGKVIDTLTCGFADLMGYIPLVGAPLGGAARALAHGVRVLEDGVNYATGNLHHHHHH
# B1: HCV 208B-515 (antibody, V domains shown)
# VH: QVQLQQPGAELVKPGASLKLSCRASGYTFTSYWIHWVKQRPGQGLEWIGEIDPSDSYTNYNQKFKGKATLTVDKSSRAAYMQLSSLTSEDSAVYYCARHYYGVFDSWGQGTKLTVSS
# VL: QIVFTQYPAIMSASLGERVTMTCTASSSVTSSYLHWFQQKPGSSPKLWIYSTSNPGSGVPARFSGRGSGTSYSLSISSMEAEDAATYYCLQFHRSPWTFGGGTKLEIRR
# B2: HCV 208B-612 (antibody, V domains shown)
# VH: EVQLQQSGPELVKPGASVKMSCKASGYRFTSYVMHWVRQKPGQGLEWIGYIDPHNDDTKYSEKFRGKATLTSDKSSTTAYMELSSLTSEDSAVYYCVRYSYDRDYSPMDYWGQGTSVTVSS
# VL: QIVLTQSPTLMSASPGEKVTMTCSASSTVTYIYWYQQKPGSSPRLWMYDTFNLVSGVPARFSGSRSGTSYFLTISSMEGEDAATYYCQQYSDSPYTFGGGTKLEIKR
# B3: HCV 208A-210 (antibody, V domains shown)
# VH: QVQLQQSGPELVKPGASMRISCKASGYTFTSYYVHWIKQRPGQGLEWIGCIYPGDVNTDYNEKFKGKATLTADKSSSTAYMQVSTLTSEDSAIYFCVLYYYGSFAYWGQGTLVTVSA
# VL: EIVLTQSPAITAASLGQNVTITCRASSSVSYMHWYRQKSGTSPQLWIYEISRRASGVPARFRASGSGTSYSLTISSMEAEDAAIYYCQQWNYPLTFGAGTKLEVKR
# B4: HCV 208B-353 (antibody, V domains shown)
# VH: EVQLVESGGDLVKPGGSLKLSCAASGFTFNHYGMSWVRQPPDKRLEWVATISSGGGYTYYPDSVKGRFTISRDNAKDTLSLQMSSLRSGDTAVYYCASLYGSLFAYWGQGTLVTVSA
# VL: DIVMTQSQKFMSTTVGDRVRVTCKASQNVGTAVAWYQQKPGQSPKLLIYSASNRYTGVPDRFTGSGSGTDFTLTITNMQSEDLADYFCQQYSTYPLTFGSGAKLEIKR
# B5: HCV 208B-793 (antibody, V domains shown)
# VH: EVKLVESGGGLVQPGGSLKLSCAASGFTFSSYAMSWVRQTPERRLEWVTYISNGGGSTYYSDTVKGRFTFSRDNAKNTLYLQMSSLKSEDTAMYYCARHGLGRTGFASWGQGTLVTVSA
# VL: DIVMTQSHKFMSTSVGDRVSITCKASQDVGTAVAWYQQKPGQSPKLLIYWASTRHTGVPDRFTGSGSGTDFTLTISNVQSEDLADYFCQQYSNYLTFGAGTKLEVKR
# B6: HCV 208A-126 (antibody, V domains shown)
# VH: QLQQSGPVLVKPGASVMISCKTSGYTFTENAMHWVKQSHGKSLEWIGGVNPNNGDTIFNQKFKGKATLTVDKSSNTAFTELRSLPSEESTVYYCVRRGLDFFDYWGQGTSVTVSS
# VL: DIVLTQSPASLAVSLGQRATISCRASQSVSTSRYSYMHWYQQKPGQPPKLLIKYASNLESGVPARFSGSGSGTDFTLNIHPVAEEDTAAYYCQHSWEFPFTFGSGTKLEIKR
# B7: HCV 208B-395 (antibody, V domains shown)
# VH: QVQLQQSGAGLAKPGASVKMSCKASGYTFTANKMHWTKQRPGQGLEWIGYIDPSSGYTQYNHKIQDKATLTADTSSSTAYMQLSSLTFEDSAVYYCTNFAYWGQGTLVTVSA
# VL: DIVLTQSPATLSVTPGDRVSLSCRASQRIYNYLHWYQQKSHESPRLLIKYASQSISGIPSRFSGSGSGTDFILTINSVETEDFGMYFCQQSNSWPLTFGAGTKLELRR
# B8: HCV 208A-207 (antibody, V domains shown)
# VH: QGQLQQPGAEFVKPGASLKLSCRASGYTFTSYWIHWVKQRPGQGLEWIGEIDPSDSYINQNQKFRGKATLTVDKSSSTAYMELSGLTSEDSAVYYCARHYYGVLDSWGQGTTLTVSS
# VL: B7 VL with I48T
# B9: HCV 208B-547 (antibody, V domains shown)
# VH: B7 VH with G10E, A31S, T37A, Q59E, H62Q, Q65K, T74K, F88S
# VL: B3 VL with I2V, N18K, L45P, R52T, R53L, A59T, V104L
# B10: HCV 208B-826 (antibody, V domains shown)
# VH: DVQLVESGGGLVQAGGSRKLSCAASGFPFSSFGMHWVRQAPEKGLEWVASISSRTSKIYYADNLKGRFTISRDNPKNTLFLQMTSLGSEDTAMYYCVRSVFGNSYWFFDVWGAGTTVTVSS
# VL: B7 VL with I48T
# B11: HCV 208B-672 (antibody, V domains shown)
# VH: EVKLVESGGSLVQPGGSLKLSCAASGFNFNTYAMSWVRQTPEKRLEWVAYISNGGGNTYYVDTVKGRFTISRDNAKNTLYLRMSSLKSEDTAMYYCARHGLYWGYSMDYWGQGTSVTVSS
# VL: DIQMTQSPSSLSASLGERVSLTCRASQDIGGSINWLQQEPDGTIKRLIYATSSLDSGVPKRFSGSRSGSDYSLTISSLESEDFVDYYCLQYASSPPTFGGGTKLEIKR
# B12: HCV 208B-911 (antibody, V domains shown)
# VH: QVHLQQPGAELVRPGVSVKLSCKASGYTFTTYSINWMKQRPGQGLEWIGNIYPSTSHTNYNQKFRDKATMTVDKSSSTAYMQLSSPTSEDSAVYYCTINAYSMDYWGQGTSVTVSS
# VL: QIVLTQSPEIMSASPGEKVTITCSASSSVSFMYWFQQKPGTSPKLWIYITSNLASGVPTRFSGSGSGTSYSLTISRMEAEDAATYYCQQRSSFPYTFGGGTKLEMKR
# B13: HCV 208B-471 (antibody, V domains shown)
# VH: QGQLQQSGPVLVKPGASEILYCKTSGFTFSSTYISWLKQKPGQSLEWIAWIYAGTGATNYNQKFTGKAQLTVDASSNTAYMHFSGLTPEDSAIYYCAISGAGVYWGQGTLVTVSA
# VL: DVVMTQTPLSLPVSLGDQASISCRSSQSLLHSNGNTYLEWYLQKPGQSPNLLIYNVSNRFSGVPDRFSGSGSGTDFALKISRVGAEDLGVYYCFQGSHVPLTFGAGTKLELKR
# B14: HCV 208B-517 (antibody, V domains shown)
# VH: QVQLKQSGPGLVQPSQSLSITCTVSGFSLITHGVHWVRQSPGKGLEWLGVIWSGGSTDYNAAFISRLSISKDTSKSQVFLKMSSLQADDTAIYYCARNGGATAFDYWGQGTTLTVSS
# VL: DIVMTQSPATLSVTPGDRVSLSCRASQSISDYLHWYQQKSHESPRLLIKYASQSISGIPSRFRGSGSGSHFTLSINSVEPEDVGVYYCQNGHSFPWTFGGGTKLEIKR
# B15: HCV 208B-822 (antibody, V domains shown)
# VH: QVQLKQSGPGLVQPSQSLSITCTVSGFSLITYGVHWVRQSPGKGLEWLGVIWGGGSTGYNAAFVSRLNITKDNSKSQVFFKMNSLQPDDTAIYYCARNGGATVFDYWGQGTTLTVSS
# VL: B14 VL with S28T, R63S
# Assays:
# [1] = target: T1, HCV bt-134-154 (Peptide 1, HCVc 134-154); experiment: EIA, captured mAb + biotin peptide
# [2] = target: T2, HCV bt-151-171 (Peptide 3, HCVc 151-171); experiment: EIA, captured mAb + biotin peptide
# [3] = target: T3, HCV bt-141-161 (Peptide 2, HCVc 141-161); experiment: EIA, captured mAb + biotin peptide
# HCV Core1-169 [4] = target: T4, HCV Core1-169; experiment: SPR sandwich, capture mAb C11-14
# HCV Core1-169 [5] = target: T4, HCV Core1-169; experiment: SPR sandwich, capture mAb C11-7
# HCV Core1-169 [6] = target: T4, HCV Core1-169; experiment: SPR sandwich, capture mAb C11-3
# HCV Core1-169 [7] = target: T4, HCV Core1-169; experiment: SPR sandwich, capture mAb C11-9
Binder,Reactivity (OD 492 nm) [1] [OD units],Reactivity (OD 492 nm) [2] [OD units],Reactivity (OD 492 nm) [3] [OD units],expected percent binding (HCV Core1-169 [4]) [%],expected percent binding (HCV Core1-169 [5]) [%],expected percent binding (HCV Core1-169 [6]) [%],expected percent binding (HCV Core1-169 [7]) [%]
B1,0.51,0.06,0.13,–,–,–,–
B2,3.05,0.15,3.04,–,–,–,–
B3,0.06,0.05,1.15,–,–,–,–
B4,0.07,0.07,2.47,–,–,–,–
B5,0.09,0.09,0.72,–,–,–,–
B6,–,–,–,1.3,2,1.2,≤ 1
B7,0.54,3.69,0.13,–,–,–,–
B8,1.24,0.08,0.17,–,–,–,–
B9,0.12,2.9,0.08,–,–,–,–
B10,0.53,0.08,1.35,–,–,–,–
B11,0.08,0.1,2.79,–,–,–,–
B12,0.09,0.71,0.09,–,–,–,–
B13,1.62,0.08,0.11,–,–,–,–
B14,0.1,0.7,0.41,–,–,–,–
B15,0.08,0.07,1.35,–,–,–,–
